According to US20260102468A1, “COMPOSITIONS AND METHODS FOR MARCO INHIBITION AND IMPROVED DRUG DELIVERY” (BOARD OF REGENTS, THE UNIVERSITY OF TEXAS SYSTEM, priority 2022, published 2026):

T1: MARCO (Mus musculus, UniProt Q60754)
T1 construct: secretion signal peptide (N); host or cells: Expi293 cells
T1 sequence (Q60754 with tags, fused parts or gaps): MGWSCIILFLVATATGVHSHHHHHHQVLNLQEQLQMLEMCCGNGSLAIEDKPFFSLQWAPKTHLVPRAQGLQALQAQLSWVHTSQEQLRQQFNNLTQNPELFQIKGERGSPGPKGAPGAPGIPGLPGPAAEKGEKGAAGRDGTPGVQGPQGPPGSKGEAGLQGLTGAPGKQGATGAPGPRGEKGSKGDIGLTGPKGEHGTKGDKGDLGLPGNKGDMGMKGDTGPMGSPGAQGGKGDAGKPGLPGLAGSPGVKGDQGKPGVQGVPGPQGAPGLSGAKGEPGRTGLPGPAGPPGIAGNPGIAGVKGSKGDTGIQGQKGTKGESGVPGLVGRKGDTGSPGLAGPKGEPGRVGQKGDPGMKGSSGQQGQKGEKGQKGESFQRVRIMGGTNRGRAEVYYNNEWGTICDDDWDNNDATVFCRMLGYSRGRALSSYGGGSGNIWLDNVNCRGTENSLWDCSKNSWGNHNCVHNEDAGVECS


Experiments:
[1] = system: liver CD11b+ cells; experiment: Doxorubicin uptake by liver CD11b+ cells in treated mice (flow cytometry); assay type: in vivo; conditions: flow cytometry of digested liver cells
[2] = system: macrophages; experiment: Nanoparticle uptake (phagocytosis) by macrophages after MARCO knockdown or blockade; assay type: cell-based, mouse; conditions: with or without incubation with recombinant MARCO protein
Protocol: The effect of MARCO expression on nanoparticle uptake by macrophages in vitro was tested. […] On day 5 following macrophage collection and culture, the siRNAs were mixed with the DharmaFECT 4 transfection reagent (Horizon, T-2004-02) at a final concentration of 100 nM, after which the cells were incubated with the siRNA for 48 hours. The siRNAs used in this study were as follows: Control siRNA (Cell Signaling Technology, 6568S) and Marco siRNA (Millipore Sigma, SASI_Mm01_00200135, SASI_Mm02_00319301).
Scale bar=50 μm. White arrows indicate cells that have taken up nanoparticles. […] Unpaired t-test.
For the nanoparticle phagocytosis assay, cells were plated in Costar 24-well Clear Flat Bottom Ultra-Low Attachment Multiple Well Plates (Corning, 3473) at a density of 10^5 cells/well. Nanoparticles or drug were added to the wells at the following concentrations: nanoparticles, 10^2-10^4/cell; Abraxane, 1 μg/mL; doxorubicin (Doxil), 20 μg/mL. Plates were then transferred to a cell culture incubator, and 2 hours later the cells were collected and washed followed by fixation with 4% paraformaldehyde. The cells were stained with fluorescence-labeled antibodies and analyzed by flow cytometry. The mean fluorescence intensity or the percentage of fluorescence-positive cells was used to compare the uptake of nanoparticles or drug.

[3] = set-up: species or system mice; conditions: mouse, in vivo, iv
Protocol: Anti-MARCO, monoclonal MARCO antibody, clone ED31, 2.5 mg/kg; rMARCO, recombinant MARCO protein SRCR domain, 0.3 mg/kg; NP, 100 nm nanoparticles, 10^11 particles injected through tail vain. n=3 mice for each treatment group at each time point. One way ANOVA with correction for multiple comparison was used to compare the difference between NP and other treatment groups. Error bars are means±SD.
Blockade of MARCO-nanoparticle interaction decreased nanoparticle uptake by liver in mice. Two strategies for blocking the MARCO-nanoparticle interaction were tested: with antibody to directly block the MARCO receptors on the cell or with recombinant MARCO protein to saturate the MARCO binding capacity of the particles. Young female C57BL6 background mice (aged 6 weeks) were intravenously injected with fluorescence-labelled 100 nm PEGylated polystyrene nanoparticles (NP, 10^11 particles per 20 g of body weight) with or without recombinant MARCO protein (SRCR domain, 0.3 mg/kg). Liver IVIS imaging was done 4 h after the injection. […] Unpaired t-test.

[4] = system: E0771 tumor cells; experiment: E0771 breast cancer mouse model, ABRAXANE plus MARCO blockade; assay type: in vivo, mice
Protocol: For this study, one million E0771 tumor cells were implanted in young female C57BL6 mice (aged 6 weeks old). Tumor growth was measured every 3 days with calipers. Tumor volume was calculated as: Volume=0.5×Length×Width^2. When tumor volume reached around 60-80 mm^3 the treatment was started. The mice were treated with paclitaxel-protein particles (ABRAXANE®, 20 mg/kg) or ABRAXANE® plus MARCO blockade agents (anti-MARCO antibody, 2.5 mg/kg; ECD (extracellular domain), MARCO protein extracellular domain, 1.5 mg/kg; SRCR, or MARCO protein scavenger receptor cysteine-rich (SRCR) domain, 0.3 mg/kg). IgG plus 0.9% sodium chloride was used as a control.
One-way analysis of variance with post hoc testing was used to compare tumor volumes at day 18 after treatment. Error bars are means±S.E.M. We used the same experimental setup with the breast E0771 tumor model and treatment doses as the young animals (ABRAXANE®, 20 mg/kg, and/or MARCO protein scavenger receptor cysteine-rich (SRCR) domain, 0.3 mg/kg).
To determine the specificity of the effects of recombinant MARCO protein blockade, additional control experiments in which mouse serum protein was used as an irrelevant protein control and the ECD^Δ as the minimal-binding MARCO control were performed.

[5] = system: E0771 tumor cells; experiment: E0771 breast cancer mouse model, DOXIL plus MARCO blockade; assay type: in vivo, mice; conditions: DOXIL 2 mg/kg + SRCR 0.3 mg/kg
Protocol: For this study, one million E0771 tumor cells were implanted in young female C57BL6 mice (aged 6 weeks old). Tumor growth was measured every 3 days with calipers. Tumor volume was calculated as: Volume=0.5×Length× Width^2. When tumor volume reached around 60-80 mm^3 the treatment was started. The mice were treated with Doxil (DOXIL®, 2 mg/kg) or DOXIL® plus MARCO blockade agent (MARCO recombinant protein, SRCR domain, 0.3 mg/kg). 0.9% sodium chloride was used as a control. All agents were injected intravenously 2 times each week for a total of 5 treatments. FIGS. 9A and 33A-33B show growth curves for the E0771 mice treated by DOXIL® or DOXIL® plus MARCO blockade. n=5-6 mice in each treatment arm. Un-paired t-test was used to compare tumor volumes at day 18. […] FIGS. 33C-33D show survival curves of young and old mice bearing E0771 tumors in the groups treated with Doxil (DOXIL®, 2 mg/kg) or DOXIL® plus MARCO blockade agent (MARCO recombinant protein, SRCR domain, 0.3 mg/kg).
Control vs. MARCO or Doxil vs. DoxM were compared with unpaired/tests. Error bars are means±S.E.M. The present inventors used the same experimental setup with the breast E0771 tumor model and treatment doses as the young animals (DOXIL®, 2 mg/kg, and/or MARCO protein scavenger receptor cysteine-rich (SRCR) domain, 0.3 mg/kg).

[6] = system: nab-paclitaxel; experiment: Pull-down of nab-paclitaxel by recombinant MARCO proteins (Western blot of albumin); assay type: binding; conditions: 0.1 mg/mL SRCR, 0.5 mg/mL ECD or 0.4 mg/mL ECD^Δ with nab-paclitaxel 5 mg/mL, His-tag pulldown
Protocol: (§1) Consistent with a previous report (Brannstrom, A., et al. 2002. Biochem Biophys Res Commun 290, 1462-1469), the SRCR^R→A and SRCR^Δ mutations of MARCO were not expressed. […] Next, the binding capacity of MARCO to particles and nanomedicine was tested. Centrifugal filters were used to isolate unbound MARCO after incubating the SRCR (0.1 mg/mL) with different concentrations of nanoparticles. The MARCO recombinant proteins (0.1 mg/mL SRCR, 0.5 mg/mL ECD, or 0.4 mg/mL ECD^Δ) were incubated with nab-paclitaxel (5 mg/mL, paclitaxel concentration). After 15 min at room temperature with gentle shaking, the mixture was further incubated with the Dynabeads His-Tag isolation and Pulldown (ThermoFisher, Cat. #10103D). After magnetic separation and three washes with PBS, the beads were boiled in western blot sample buffer for subsequent western blotting. Primary antibodies used for western blots were albumin, CST, Cat. #4929, 1:1000; and His-Tag, CST, Cat. #2365, 1:1000. To test the binding capacity of MARCO, 0.1 mg/mL of SRCR was incubated for 15 min at room temperature with different concentrations of nab-paclitaxel or nanoparticles. The mixture was centrifuged through a 30-kDa cutoff filter (Millipore, UFC903096) at 1000 g for 30 minutes. The unbound SRCR in the lower part of the tube was examined by western blotting. […]

[7] = biological target: T1, MARCO; experiment: Binding of nanoparticles with additional MARCO after saturation; conditions: pre-incubation with saturation doses of SRCR or ECD
Protocol: as §1

Row | Molecule | doxorubicin uptake by liver CD11b+ cells, young versus old mice [1] | nanoparticle uptake by macrophages with recombinant MARCO protein [2] | number of nanoparticles in the liver [3] | treatment outcome of ABRAXANE, older mice ([4]; C57BL6 aged 50 weeks, ABRAXANE 20 mg/kg, SRCR 0.3 mg/kg or anti-MARCO antibody, day 18) | efficacy of combination treatment at increased SRCR concentration ([4]; nab-paclitaxel 20 mg/kg, SRCR 3 mg/kg vs 0.3 mg/kg) | therapeutic effect of ABRAXANE (tumor growth inhibition), young mice ([4]; young (6 weeks) female C57BL6, ABRAXANE 20 mg/kg i.v., antibody 2.5, ECD 1.5, SRCR 0.3 mg/kg, day 18) | treatment outcome of Doxil, older mice ([5]; C57BL6 aged 50 weeks) | relative doxorubicin concentrations in tumors ([5]; Doxil fluorescence intensity per mg of tissue, IVIS) | binding with nab-paclitaxel [6] | binding of nanoparticles with additional MARCO after saturation with recombinant MARCO [7]
1 | COc1cccc2c1C(=O)c1c(O)c3c(c(O)c1C2=O)C[C@@](O)(C(=O)CO)C[C@@H]3O[C@H]1C[C@H](N)[C@H](O)[C@H](C)O1 [doxorubicin] | took up more doxorubicin than did the older mice | – | – | – | – | – | – | – | – | –
2 | SRCR: recombinant mouse MARCO protein scavenger receptor cysteine-rich (SRCR) domain, SEQ ID NO: 2 (protein, MARCO SRCR) MGWSCIILFLVATATGVHSHHHHHHQRVRIMGGTNRGRAEVYYNNEWGTICDDDWDNNDATVFCRMLGYSRGRALSSYGGGSGNIWLDNVNCRGTENSLWDCSKNSWGNHNCVHNEDAGVECS | – | decreased nanoparticle uptake by macrophages | significantly reduced the number of nanoparticles in the liver | does not enhance the treatment outcome of abraxane in older mice | nor did further increasing the concentration of SRCR enhance the efficacy of combination treatment | enhanced the inhibition of tumor growth in young mice treated with nab-paclitaxel | does not enhance the treatment outcome of Doxil in older mice | increased the relative doxorubicin concentrations in tumors | could strongly bind with nab-paclitaxel | could not bind with additional MARCO
